Experimental data published in US20240166747A1.
Where a chain is given by its changes, count along the chain named. Each block holds one binder with its values, some of them ahead of it.

What was measured:
[1] = biological target: human CD96v2 expressed on cells (human) (UniProt P40200); assay: competition flow cytometry, inhibition of CD155-Fc-AF647 binding to CHO cells expressing human CD96v2
[2] = biological target: human CD96v2 expressed on cells (human) (UniProt P40200); assay: flow cytometry, CHO cells expressing human CD96v2
[3] = biological target: native human CD96 on primary human T cells and NK cells (human) (UniProt P40200); assay: flow cytometry, primary human CD3+ T cells

B2: 42Y073-86F04-5 (antibody, V domains shown)
VH: QVQLVQSGAEVKKPGSSVKVSCKASGGTFSSHAISWVRQAPGQGLEWMGGIIPIFGRGKYAQKFQGRVTITADESTSTAYMELSSLRSEDTAVYYCARLLGESGMDVWGQGTTVTVSS
VL: DIQMTQSPSSLSASVGDRVTITCRASQSISSYLNWYQQKPGKAPKLLIYAASSLQSGVPSRFSGSGSGTDFTLTISSLQPEDFATYYCQQPYFSPPTFGGGTKVEIK
- IC50 [1]: 0.38 nM

B8: 42Y073-86F04-18 (antibody, V domains shown)
VH: B2 VH with H32R, F55M, R57T, G58A, K59R
VL: B2 VL
- IC50 [1]: 0.59 nM
- EC50 [2]: 0.07 nM

B9: 42Y073-86F04-23 (antibody, V domains shown)
VH: B2 VH with S31G, H32Y, A33P, F55M, R57T, G58A, K59R
VL: B2 VL
- IC50 [1]: 0.76 nM
- EC50 [2]: 0.06 nM

B10: 42Y073-86F04-3 (antibody, V domains shown)
VH: B2 VH with S31Y, H32N, F55M, R57T, G58A, K59R
VL: B2 VL
- IC50 [1]: 0.31 nM
- EC50 [2]: 0.04 nM

B11: 42Y073-86F04-6 (antibody, V domains shown)
VH: B2 VH with S31G, G58A, K59R
VL: B2 VL
- IC50 [1]: 0.25 nM
- EC50 [2]: 0.06 nM

B12: 42Y073-86F04-4 (antibody, V domains shown)
VH: B2 VH with S30E, H32E, G58A, K59R
VL: B2 VL
- IC50 [1]: 0.18 nM
- EC50 [2]: 0.04 nM

B13: 42Y073-86F08-3 (antibody, V domains shown)
VH: QVQLVQSGAEVKKPGSSVKVSCKASGGTFVNYAISWVRQAPGQGLEWMGGIIPALGTANYAQKFQGRVTITADESTSTAYMELSSLRSEDTAVYYCARGAGYYGDKDPMDVWGQGTTVTVSS
VL: DIQLTQSPSSLSASVGDRVTITCRASQSISSYLNWYQQKPGKAPKLLIYAASSLQSGVPSRFSGSGSGTDFTLTISSLQPEDFATYYCQQVLHTITFGGGTKVEIK
- IC50 [1]: 0.26 nM
- EC50 [2]: 0.04 nM

B14: 42Y073-86F08-47 (antibody, V domains shown)
VH: B13 VH with V30S, N31Q, S35H, G50V, A54I, L55F, T57K
VL: B13 VL
- IC50 [1]: 0.17 nM
- EC50 [2]: 0.05 nM

B15: 42Y073-86F08-8 (antibody, V domains shown)
VH: B13 VH with V30W, N31L, A54Q
VL: B13 VL
- IC50 [1]: 0.93 nM
- EC50 [2]: 0.17 nM

B16: 42Y073-86F08-4 (antibody, V domains shown)
VH: B13 VH with V30S, N31E, S35H, G50N, A54I, L55F, N59G
VL: B13 VL
- IC50 [1]: 0.38 nM
- EC50 [2]: 0.04 nM

B17: 42Y073-86F08-17 (antibody, V domains shown)
VH: B13 VH with V30R, N31E, A54V, L55F
VL: B13 VL
- IC50 [1]: 0.52 nM
- EC50 [2]: 0.1 nM

B18: 42Y073-86F08-22 (antibody, V domains shown)
VH: B13 VH with S16A, G27Y, V30D, N31S, I34M, S35H, A54I, L55F, N59W
VL: B13 VL
- EC50 [3]: 0.1 nM
- IC50 [1]: 0.41 nM
- EC50 [2]: 0.03 nM

B19: 42Y073-86F08-16 (antibody, V domains shown)
VH: B13 VH with V30N, N31E, I52V, A54V, L55F, N59K
VL: B13 VL
- IC50 [1]: 0.78 nM
- EC50 [2]: 0.03 nM

Binders with a lower IC50 [1], results first:

- IC50 [1]: 0.1 nM
- EC50 [2]: 0.02 nM
B4: 42Y073-1A01-126 (antibody, V domains shown)
VH: QVQLVQSGAEVKKPGASVKVSCKASGYTFTRYNMHWVRQAPGQGLEWMGWINPAGGSTSYAQKFQGRVTMTRDTSTSTVYMELSSLRSEDTAVYYCARETAYYTTKGNWFDPWGQGTLVTVSA
VL: B2 VL with P91S, Y92L, F93Y, S94P, P96R

- IC50 [1]: 0.06 nM
- EC50 [2]: 0.02 nM
B5: 42Y073-1A01-100 (antibody, V domains shown)
VH: B4 VH with R31T, N33R, W50I, A54S, S57L, S59Q, A123S
VL: B2 VL with P91S, Y92L, F93Y, S94P, P96R

- IC50 [1]: 0.03 nM
- EC50 [2]: 0.47 nM
B1: 42Y073-1A01-85 (antibody, V domains shown)
VH: B4 VH with R31S, N33P, W50I, A54S, S57F
VL: B2 VL with P91S, Y92L, F93Y, S94P, P96R

- IC50 [1]: 0.03 nM
- EC50 [2]: 0.01 nM
B3: 42Y073-1A01-191 (antibody, V domains shown)
VH: B4 VH with R31K, N33R, W50I, A54Q
VL: B2 VL with P91S, Y92L, F93Y, S94P, P96R

- IC50 [1]: 0.03 nM
- EC50 [2]: 0.77 nM
B6: 42Y073-1A01-97 (antibody, V domains shown)
VH: B4 VH with Y32A, N33A, W50I, S57Y, A123S
VL: B2 VL with P91S, Y92L, F93Y, S94P, P96R

- IC50 [1]: 0.03 nM
- EC50 [2]: 0.02 nM
B7: 42Y073-1A01-103 (antibody, V domains shown)
VH: B4 VH with R31A, N33Q, W50I, S57W, A123S
VL: B2 VL with P91S, Y92L, F93Y, S94P, P96R
